Reference: patent US20150098947A1 (RESEARCH DEVELOPMENT FOUNDATION, published 2015)

Key:
[1] = target: T1, Olfml-3 peptide B (human Olfml3 390-403 aa, olfactomedin-like domain) (human); test: peptide binding test (ELISA)
T1 peptide: GYQIVYKLEMRKKE

[2] = target: T2, Olfml-3 peptide A (human Olfml3 86-99 aa, coiled-coil domain) (human); test: peptide binding test (ELISA)
T2 peptide: RVDRLEREVDYLET

[3] = target: T3, human Olfml3-FLAG (human, UniProt Q9NRN5 22-406, limits assumed); test: hybridoma screening ELISA
T3 construct: Screening antigen of the hybridoma ELISA; the tag is written last only by convention; not shown: FLAG tag
T3 sequence (looked up): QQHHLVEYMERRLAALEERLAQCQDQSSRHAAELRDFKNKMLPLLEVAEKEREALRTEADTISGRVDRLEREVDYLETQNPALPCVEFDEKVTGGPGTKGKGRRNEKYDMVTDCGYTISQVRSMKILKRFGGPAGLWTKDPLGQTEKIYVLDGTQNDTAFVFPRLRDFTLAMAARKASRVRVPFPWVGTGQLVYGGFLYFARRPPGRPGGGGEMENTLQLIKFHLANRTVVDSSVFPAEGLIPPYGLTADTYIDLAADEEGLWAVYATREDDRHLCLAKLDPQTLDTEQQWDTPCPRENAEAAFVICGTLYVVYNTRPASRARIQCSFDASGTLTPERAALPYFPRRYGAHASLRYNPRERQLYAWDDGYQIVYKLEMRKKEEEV
Protocol: The inventors produced a panel of monoclonal antibodies against a recombinant Olfml-3 protein. Three antibodies against human Olfml3 were generated using standard techniques by injecting simultaneously two 14-aa long peptides comprising epitopes in the coiled-coil (peptide A, 86-99 aa: […]; SEQ ID NO: 5) and the olfactomedin-like domains (peptide B, 390-403 aa: […]; SEQ ID NO: 6) as immunogens in rats (Aurrand-Lions et al., 1996). Briefly, human Olfml3 peptides A and B coupled to 100 μg KLH carrier protein (keyhole limpet hemocyanin, Pierce) and mixed with adjuvant 56322 (Sigma), were used to immunize female Wister rats. In total, three injections were performed every 9 days. Two days after a final s.c. injection of human Olfml3 peptides, blasts from draining lymph nodes were fused to Sp2/0 cells, and hybridomas were selected in HAT-containing medium (Life Technologies). Growing clones were screened by ELISA for the production of monoclonal antibodies recognizing specifically human Olfml3-FLAG. Positive clones were subcloned, rescreened, and further tested. Antibodies were purified on protein G-Sepharose columns (GE HealthCare) according to the manufacturer instructions. Two Olfml3-binding antibodies, 46A9BO and 9F8BO, are of IgG2b isotype subclass and one, Z14A7, is of IgG2c isotype subclass. The 46A9BO and 9F8BO monoclonal antibodies were used for in vivo tumor graft models.

| Binder | binding result [1] | binding result [2] | binding result [3] |
| --- | --- | --- | --- |
| 46A9BO monoclonal antibody (glycosylated) (antibody, IgG2b, V domains shown, also called mAb 2; anti-Olfml-3B) VH: AVHLVESGGGLVQPKESLKISCAASGFTFSNAAMYWVRQAPGKGLEWVARIRTKPNDYATYYVDSVKGRFTISRDDSQSMVYLQMDNLKTEDTAMYYCTAFTEPDYWGQGVMVTVSS VL: LIQPPSASVTLGSTVSLTCVGDELSKTYAHWYQQKPDKTIVSVIYKDSERPSGISDRFSGSSSGTTATLTIHGTLAEDEADYYCLSTYSDDNLPVFGGGTKLTVL | binds | no binding | binds |
| Z14A7 monoclonal antibody (antibody, IgG2c, V domains shown, Rat hybridoma antibody, IgG2c) VH: EVQLVETGGSLVQPGKSLKLTCATSGFTFSNAWMHWVRQSPEKQLEWVAQIKAKSNNYATYYAESVKGRFTISRDDSKSSIYLQMNSLKEEDTAIYYCLYGYYFDYWGQGVMVTVSS VL: DVVMTQTPVSLPVSLGGQASISCRSSQSLIHSNGNTYLHWFLQKPGQSPQLLIYRISNRFSGVPDRFSGSGSGTDFTLKISRVESEDLGLYYCLQGTHLPFTFGSGTKLEIKR | – | – | binds |
| deglycosylated 46A9BO antibody (antibody, V domains shown, Same rat IgG2b antibody as 46A9BO after deglycosylation; also called 46A9BO (deglycosylated)) VH: AVHLVESGGGLVQPKESLKISCAASGFTFSNAAMYWVRQAPGKGLEWVARIRTKPNDYATYYVDSVKGRFTISRDDSQSMVYLQMDNLKTEDTAMYYCTAFTEPDYWGQGVMVTVSS VL: LIQPPSASVTLGSTVSLTCVGDELSKTYAHWYQQKPDKTIVSVIYKDSERPSGISDRFSGSSSGTTATLTIHGTLAEDEADYYCLSTYSDDNLPVFGGGTKLTVL | binds | no binding | – |
